Laboratory results: patent US9688764B2, “Methods of treating breast cancer by administering anti-human prolactin receptor (PRLR) antibodies” (REGENERON PHARMACEUTICALS, INC., priority 2013, dated 2017)

What was measured:
[1] = tested on: PC3/hPRLR cells; assay: Cell viability (cell kill) assay; assay type: cell-based, human; settings: PC3/PRLR; Table 11; 3 days
Description: (§1) PRLR-overexpressing cells, including HEK293, PC3, MCF7 and NCI-N87, were generated to assess the ability of anti-PRLR conjugated antibodies to reduce cell viability. For comparative purposes, PC3 and T47D cells with overexpressed ErbB2 were also generated, as well as an MCF7 cell line over-expressing both hPRLR and hErbB2. Briefly, Lipofectamine® 2000-mediated transfection methodology was utilized to generate HEK293 cells expressing human PRLR (HEK293/hPRLR) or human ErbB2 (HEK293/hErbB2). Lipofectamine LTX with Plus Reagent was used to generate PC3 cells expressing human PRLR (PC3/hPRLR) or human ErbB2 (PC3/hErbB2). Lentiviral-mediated transduction was utilized to generate MCF7 cells expressing human PRLR (MCF7/hPRLR), NCI-N87 cells expressing human PRLR (NCI-N87/hPRLR), T47D cells over-expressing human ErbB2 (T47D/hErbB2), and MCF7 cells expressing both human PRLR and human ErbB2 (MCF7/hPRLR/hErbB2). All lines were selected for at least two weeks in complete growth media plus appropriate selection reagents. Stably expressing populations were enriched for PRLR expression via FACS using the anti PRLR antibody Control I.
(§2) Next, the ability of anti-PRLR-DM1 antibody-drug conjugates (i.e., anti-PRLR antibodies conjugated to DM1 via a non-cleavable linker [SMCC]) to reduce cell viability was determined using in vitro cell based assays. Cells were seeded in PDL-coated 96 well plates at 1500 to 10000 cells per well in complete growth media and allowed to grow overnight. For cell viability curves, ADCs or free DM1 (as the methyl disulfide derivative DM1-SMe) were added to the cells at final concentrations ranging from 500 nM to 5 pM and incubated for 3 days. The 293, PC3 and T47D cells were incubated with CCK8 (Dojindo, Rockville, Md.) for the final 1-3 hours and the absorbance at 450 nm (OD450) was determined on a Flexstation3 (Molecular Devices, Sunnyvale, Calif.). MCF7 cells were treated with Hoechst 33342 nuclear stain while being fixed with 4% formaldehyde. Images were acquired on the ImageXpress micro XL (Molecular Devices, Sunnyvale, Calif.) and nuclear counts were determined via Columbus image analysis software (Perkin Elmer, Shelton, Conn.). Background OD450 values (PC3, 293, and T47D) or nuclear counts (MCF7) from digitonin (40 nM) treated cells was subtracted from all wells and viability was expressed as a percentage of the untreated controls. IC50 values were determined from a four-parameter logistic equation over a 10-point response curve (GraphPad Prism).
(§3) Finally, the potency of anti-PRLR antibodies conjugated to DM1 via the non-cleavable linker SMCC was compared to the cell killing potency of anti-PRLR antibodies conjugated to MMAE via the cleavable linker: mc-vc-PAB (available from Concortis, San Diego, Calif.). Cells used in this experiment were PC3, PC3/hPRLR, MCF7/ATCC and MCF7/PRLR.

[2] = tested on: MCF7/hPRLR (MCF7/PRLR) cells; assay: Cell viability (cell kill) assay, nuclear counts; assay type: cell-based, human; settings: Table 12, 3 days
Description: as §1, §2, §3
(§4) Additional toxins (DM4, MeNHC3-May, and MMD) conjugated to anti-PRLR antibodies were also tested in T47D and MCF7/hPRLR cell lines, and results are summarized in Tables 19 (293 and T47D cell killing) and 20 (MCF7/ATCC and MCF7/PRLR cell killing). (ND=not detected).

[3] = tested on: MCF7 (MCF7/ATCC) cells; assay: Cell viability (cell kill) assay, nuclear counts; assay type: cell-based; settings: MCF7; Table 12; 3 days
Description: as §1, §2, §3, §4

[4] = tested on: HEK293 (293) cells; assay: Cell viability (cell kill) assay; assay type: cell-based; settings: 293; Table 11; 3 days
Description: as §1, §2

[5] = tested on: PC3/PRLR tumors; assay: Tumor growth inhibition in xenograft-bearing mice; assay type: in vivo, SCID mice; settings: for Average Tumor Growth Inhibition (%): multi-dose 15 mg/kg, SCID mice
Description: (§5) Briefly, 20×10^6 MCF7/PRLR cells (ATCC HTB-22 transfected with full length hPRLR as previously described) were implanted subcutaneously into the left mammary fat pad of female NCr nude mice. In other studies, 10×10^6 PC3/PRLR (ATCC CRL-1435 transfected with full length hPRLR as previously described) were implanted subcutaneously into the left flank of male SCID mice. Additionally, 10×10^6 parental T47D (ATCC HTB-133) or […] T47D#11 cells (ATCC HTB-133 serially passaged in vivo as described below) were subcutaneously implanted into the left flank of female CB17 SCID mice. All mice were obtained from Taconic (Hudson, N.Y.). Each bolus of cells was supplemented with a 90-day estrogen release pellet (1.7 mg/pellet; Innovative Research America, Sarasota Fla.). Once tumors had reached an average volume of 250 mm^3, mice were randomized into groups of seven and dosed with anti-PRLR antibody-drug conjugates of the invention or control reagents. Control reagents included PBS vehicle, free methyl-disulfide DM1 (DM1-SMe) and isotype Control 1-DM1.
(§6) In multi-dose studies, mice were dosed once a week for a total of three weeks with tumor volumes and body weights being monitored twice weekly throughout the study. Test ADCs were dosed at 5 and/or 15 mg/kg in the multi-dose studies. In single-dose studies, mice received a single dose of test ADC, and tumor volumes and body weights were monitored twice weekly throughout the study. Test ADCs were dosed at 1, 2.5, 5, and 15 mg/kg in the single-dose studies. Average tumor size as well as tumor growth inhibition relative to the vehicle treated group were calculated for each group. Tumors were measured with calipers twice a week until the average size of the vehicle group reached 1000 mm^3. Tumor size was calculated using the formula (length×width^2)/2. Tumor growth inhibition was calculated according to the following formula: (1−((Tfinal−Tinitial)/(Cfinal−Cinitial)))*100, where T (treated group) and C (control group) represent the mean tumor mass on the day the vehicle group reached 1000 mm^3. […] Results are summarized in Tables 21-25 (multi-dose) and Table 26 (single dose). (NT=not tested in the particular experiment shown).

[6] = tested on: MCF7/PRLR tumors; assay: Tumor growth inhibition in xenograft-bearing mice; assay type: in vivo, NCr nude mice; settings: for Final Tumor size mm^3 (mean ± SEM): MCF7/PRLR tumors TRIAL #2, NCr Nude mice, Day 63
Description: as §5, §6

[7] = tested on: PC3 cells; assay: Cell viability (cell kill) assay; assay type: cell-based; settings: Table 11, 3 days
Description: as §1, §2, §3

[8] = tested on: T47D cells; assay: Cell viability (cell kill) assay; assay type: cell-based; settings: T47D, Table 12, 3 days; for IC50: read-out: IC50
Experimental: as §2
Additionally, the impact of the PRLR ligand, PRL, on PRLR-SMCC-DM1 cell kill in T47D cells was assessed. T47D cells were incubated simultaneously with PRL (15 nM) and either a non-blocking anti PRLR antibody (H1H6782P) or a receptor blocking antibody (H1H6958N2).
as §4

[9] = Conjugate characterization: protein and linker/payload concentrations, payload loading (UV, MALDI-TOF, SEC-HPLC, RP-HPLC); assay type: physicochemical; settings: Anti-PRLR-SMCC-DM1 conjugates; Table 9
Description: Selected anti-PRLR antibodies were conjugated to the maytansinoid DM1 through an SMCC linker using methods similar to those set forth in U.S. Pat. No. 5,208,020 and US Patent Application Publication No. 2010/0129314, the disclosures of which are incorporated by reference herein in their entireties. The conjugates were purified by size exclusion chromatography and sterile filtered. All starting materials and solvents were purchased commercially and used without purification, unless otherwise noted.
Protein and linker/payload concentrations were determined by UV spectral analysis and MALDI-TOF mass spectrometry. Size-exclusion HPLC established that all conjugates used were >95% monomeric, and RP-HPLC established that there was <0.5% unconjugated linker payload. Yields are reported in Table 8 and 9 based on protein. All conjugated antibodies were analyzed by UV for linker payload loading values according to Hamblett et al, 2004, Clinical Cancer Research 10(20):7063-7070, and by mass difference, native versus conjugated.

[10] = tested on: T47D#11 tumors; assay: Tumor growth inhibition in xenograft-bearing mice; assay type: in vivo, CB17 SCID mice
Description: as §5, §6

[11] = tested on: HEK293/hPRLR (293/hPRLR) cells; assay: Cell viability (cell kill) assay; assay type: cell-based, human; settings: 293/PRLR, Table 11, 3 days; for IC50: read-out: IC50
Description: as §1, §2

| Molecule | % Kill [1] | IC50 [1] | % Kill [2] | IC50 [2] | % Kill [3] | IC50 [3] | % Kill [4] | IC50 [4] | % Kill [8] | IC50 [8] | Payload:Antibody Molar Ratio (MS) [9] | Payload:Antibody Molar Ratio (UV) [9] | % Kill [11] | IC50 [11] | other results |
| --- | --- | --- | --- | --- | --- | --- | --- | --- | --- | --- | --- | --- | --- | --- | --- |
| H1H6975N-DM1 (conjugate) VH: EVHLVESGGGLVQPGGSLRLSCAASGFTFSSYEMNWVRQTPGKGLEWISHISSRSVIIYYADSVKGRFTISRDNAKNSLFLQMNSLRAEDTAVYFCAGITIFGIPEYWGQGTLVTVSS VL: EIVLTQSPATLSLSPGERATLSCRASQSVSSYFAWYQQKPGQAPRLLIYDASSRATGIPTRFSGSGSGTDFTLTISSLEPEDFAVYYCQQRSSWPITFGQGTRLEIK | 68% | 2.7 nM | 87% | 0.49 nM | 73% | 150 nM | 87% | 100 nM | 80% | 6.9 nM |  |  |  |  | Average Tumor Growth Inhibition (%) ([5]; PC3/PRLR tumors TRIAL #1, Day 63): 38%; effect on PC3/PRLR tumor growth ([5]; multi-dose, especially at 15 mg/kg): demonstrated inhibition of tumor growth; effect on MCF7/PRLR tumor growth ([6]; multi-dose trial 1, 5 and 15 mg/kg): potently inhibited MCF7/PRLR tumor growth; IC50 [7]: 200 nM |
| H1H6782P-DM1: anti-PRLR antibody H1H6782P conjugated to DM1 through an SMCC linker (conjugate) VH: EVQLVESGGGLVQPGRSLRLSCAASGFTFDDYAMHWVRQAPGKGLEWVSGIIWNSGHIGYGDSVKGRFTISRDNAKKSLYLQMNSLRAEDTALYYCARDSGRYQSYFDYWGQGTLVTVSS VL: DIQMTQSPSTLSASVGDRVTITCRASHIISSWLAWYQQKPGKAPKVLIFKASSLESGVPSRFSGSGSGTEFTLTISSLQPDDFATYYCQQYNTYSRTFGQGTKVEIK | 64% | 0.92 nM | 85% | 0.65 nM | 57% | 120 nM |  | 100 nM | 74% | 4.19 nM | 2.8 |  |  |  | Average Tumor Growth Inhibition (%) ([5]; PC3/PRLR tumors TRIAL #2, Day 55): 85%; Final Tumor size mm^3 (mean ± SEM) ([6]; multi-dose 5 mg/kg): 74 ± 34 mm^3; Final Tumor size mm^3 (mean ± SEM) ([6]; multi-dose 15 mg/kg): 0 ± 0 mm^3; Average Tumor Growth Inhibition (%) ([10]; T47D#11 tumors, multi-dose 5 mg/kg, SCID mice, Day 66): 90%; effect on T47D#11 tumor growth ([10]; multi-dose, 5 and 15 mg/kg): potently inhibited tumor growth |
| H1H6960N-DM1 (conjugate) VH: EVQLVESGGGLVKPGGSLRLSCAASGITFSSYSMNWVRQAPGKGLEWVSSISTRSSLIHYADSVKGRFTISRDNAKNSLYLQMNSLRDEDTAVYYCARWDAAAAFDYWGQGTLVIVSS VL: DIQLTQSPSFLSASVGDRVTITCWASQGISSYLAWYQQKPGKAPKLLIYVASTLQSGVPSRFSGSGSGTEFTLTISSLQPEDFATYFCQQLNSYPLTFGGGTKVEIK | 82% | 1.13 nM | 78% | 0.29 nM | 77% | 100 nM | 100% |  | 71% | 5.1 nM | 3.0 | 3.6 | 95% | 0.38 nM |  |
| H1H6959N2-DM1 (conjugate) VH: EVQLVESGGGLVQPGRSLRLSCAASGFTFDDYAMHWVRQAPGKGLEWVSGISWHSGIIGYADSVKGRFTISRDNAKNSLYLQMNSLRTEDAALYYCAKIGSYFYFDSWGQGTLVTVSS VL: EIVLTQSPGTLSLSPGERATLSCRASQSVSSNYLAWYQQKPGQAPRLLIYGASSRATGIPDRFSGSGSGTDFTLTISRLEPEDFAVYYCQQFGSSGYTFGQGTNLEIK | 82% | 11.6 nM | 80% | 0.47 nM | 82% | 100 nM | 100% |  | 71% | 48.9 nM | 3.3 | 3.8 | 95% | 4.82 nM |  |
